# Test results reported in doi:10.1101/2020.08.06.226779 (bioRxiv, 2020).
# Target: the molecule itself
# Assay: SEC-MALS
protein,measurement,value
recombinant BCAS0292 (natural protein) MSGVRCDGLAIVDAVTLLSAYPDASRDADAPTVIDGRHIYVLRPGDAGQVGHNDNRLFAGLSPGDQLHLRETALALRAEVTVLFIRFALKDAGIVAPIEAEIRDAATPVPDGDDLLHPSCRPMKDHFWRSEVLAPGITTCTADFAVLDRDGAVSGYFRWETAIEIAGSRPDTKQPGVEP,stoichiometry N,2
